Literature values, collected in article PMC8801382.

Key:
[1] = target: alpha-globin (Homo sapiens) (UniProt P69905)
[2] = target: beta-globin (Homo sapiens) (UniProt P68871)
Sequence of UniProt P68871 (P68871 2-147): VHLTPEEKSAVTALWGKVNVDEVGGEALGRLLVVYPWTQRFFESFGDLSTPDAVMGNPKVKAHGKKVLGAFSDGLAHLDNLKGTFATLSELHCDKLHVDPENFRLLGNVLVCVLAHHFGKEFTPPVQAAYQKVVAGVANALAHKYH

Substance | Kd [1] [nM] | Kd [2] [nM]
AHSP (from UniProt Q9NZD4) | 17 | 
alpha-globin (from UniProt P69905) |  | 0.001
